Experimental data from the supplement of paper PMC10567573.

B1: ZNF24 (parent)
chain: THTKEQILELVVLEQFVAILPKEL
B2: MNAT1 (parent)
chain: LAPIHKLEEALYEYQPLQIETYGP

Variants of: B1
Assay: protein stability index of a GFP-peptide fusion (GPS, HEK-293T) (PSI 1-6); higher = more stable
Details: c terminus: a fixed tail appended
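Note: lentivirally expressed fusions sorted by FACS into six bins by GFP to DsRed ratio, PSI derived from sequencing read proportions per bin multiplied by bin number.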

Protein stability index: each site, then its substitutions
H2: C 2.25; P 1.76; V 2.41; E 2.74; D 4.11; A 3.12; T 2.23; L 4.38; F 2.4; Q 3.14; G 2.96; I 3.4; Y 2.19; W 3.14; M 3.24; K 3.34; N 2.59
L8: Y 2.66; E 2.32; C 2.75; R 1.85; T 1.75; I 2.79; K 1.84; H 2.1; A 2.28; S 1.57; V 2.4; D 2.52; G 1.62; Q 1.95; P 2.16; F 3.62; M 2.41; W 3.68; N 1.57
T3: G 4.09; E 3.23; D 2.43; I 2.65; P 2.96; S 3.88; F 2.76; Y 3.59; R 2.26; C 1.53; N 3.1; M 3.02; W 3.42; H 2.23; A 3.86; V 2; K 2.96; Q 2.81; L 3.11
T1: I 2.73; P 3.09; N 2.86; A 3.53; G 2.25; R 1.94; F 3.59; D 2.63; V 3.19; M 1.92; L 1.56; E 2.81; W 2.72; C 3.51; Q 1.32; S 3.3; K 2.39; Y 2.79
Q6: V 3.24; R 2.56; D 1.55; H 1.8; F 3.53; W 2.41; S 2.96; P 4; A 2.33; L 3.47; N 2.52; T 3.03; M 3.56; C 2.11; E 2.46; K 3.65; I 3.01; G 3.09; Y 4.9
I7: A 1.74; C 1.59; F 2.54; W 2.51; N 1.65; M 3.04; R 1.9; P 2.48; Q 1.89; H 2.04; D 2.35; V 1.29; E 2.55; L 2.16; K 1.56; G 1.76; Y 3.29; T 2.11; S 2.04
E5: F 2.12; N 3.01; H 2.42; V 3.53; W 2.85; Y 2.01; S 1.57; G 2.7; Q 2.97; R 3.65; A 2; M 3.25; I 3.67; C 2.31; L 2.78; K 2.23; T 3.59
E9: A 3.22; C 1.64; F 2.82; D 2.28
K4: T 1.83; C 3.41; A 2.93; R 1.59; S 2.19; W 2.88; I 3.38; Q 2.59; M 2.91; P 2.23; E 1.58; H 2; G 3.12; L 4.05; N 2.23; D 2.45; F 4.57; Y 2.51

Variants of: B2
Assay: as above
Details: c terminus: a fixed tail appended

Protein stability index of substitutions, site by site:
Q18: L 1.28; Y 1.37; C 2.21; G 1.51; P 2.76; S 1.86; V 2.25; M 1.85; D 3.99; I 1.94; E 2.08; F 2.9; A 1.84; H 1.91; N 1.92; W 1.96
E20: T 1.28; P 2.59; M 1.47; A 1.32; D 1.95; Q 2.19; W 2.88; Y 2.74; H 1.6; G 1.98; S 1.71; R 1.79; I 2.71; K 3.27
I19: G 2.85; T 2.61; Y 1.92; R 3.1; S 2.73; P 2.79; D 4.07; Q 3.62; F 1.85; E 3.3; K 2.99; V 2.63; N 3.25; H 2.85; W 2.32; M 2.37; L 2.89
T21: W 3.09; Y 2.38; G 1.98; S 2.23; E 1.8; P 2.46; N 2.5; K 2.5; A 2.6; F 5.16; M 3.53; D 2.31; C 3.14; R 2.09; H 1.62; L 3.23; Q 1.57
G23: F 1.92; A 2.16; K 2.86; Q 2.02; C 1.44; R 1.15; W 1.14; M 2.17; S 2.1; L 2.56; N 1.85; T 1.3; I 2.07; E 1.86; Y 1.87; P 1.67; H 2.67; D 1.3; V 2.79
P16: Q 1.97; A 2.43; L 1.88; S 2.57; H 2.43; V 2.23; I 2.79; Y 1.52; R 2.02; M 1.85; F 1.44; T 1.96; N 2.94; D 2.86; E 2.67; C 2.06; G 2.35; K 1.92
Y14: V 2.75; H 3.32; P 2.94; L 2.1; I 2.52; K 3.53; W 2.28; S 3.36; G 3.45; F 2.1; R 3.59; N 2.99; Q 2.87; T 3.33; M 2.42
L17: D 3.96; H 3.03; G 3.12; A 2.5; S 3.45; Q 2.19; R 3.57; P 2.89; M 2.33; C 2.51; F 1.84; I 2.1; T 2.47; W 1.95; E 3.63; K 3.19; Y 2.59; N 3.01; V 3.02
P24: A 2.14; W 1.99; G 1.82; C 2.67; Q 1.75; Y 2.37; D 1.95; K 2.29; T 1.87; I 2.04; H 1.58; L 3.08; N 2.52; S 2.35; M 1.25
Q15: E 2.36; G 1.52; I 1.66; L 1.73; D 2.94; V 1.44; F 1.17; A 2.17; R 2.03; T 2.2; M 1.94; S 2.07; Y 1.44; K 2.26; H 2.08; C 1.05; N 1.83
Y22: N 2.74; V 1.76; H 1.91; F 3.02; R 1.73; C 1.96; E 3.19; M 2.01; P 2.88; I 1.81; Q 2.66; K 2.8; S 2.4; T 2.64; L 2.63; W 2.1; A 2.18
